Patent US12252714B2, “Halogenation of complex organic compounds” (REGENTS OF THE UNIVERSITY OF MICHIGAN, priority 2018, dated 2025)
Changes are numbered by the printed parent chain. Names may count otherwise. Read-outs that look alike come from different tables or passages of the source.

B1: Rdc2: eukaryotic FDH Rdc2, literature comparison (protein, UniProt B3FWT7 22-519, looked up)
Flavin-dependent halogenase …: AAALAREGNDVVLLEADQHPRYHIGESMLPSLRPLLRFIDLEDKFDAHGFQKKLGAAFKLTSKREGSHGPRGYSWNVVRSESDEILFNHARESGAQAFQGIKINAIEFEPYEEEYPNGEKVANPGKPTSAKWSSKDGSSGDIAFKYLVDATGRIGIMSTKYLKNRHYNEGLKNLAIWGYYKNNIPWAQGTPRENQPFFEGMRDGAGWCWTIPLHNGTVSVGAVMRKDLFFEKKKSLGENATNTQIMAECMKLCPTIGELLAPAELVSDIKQATDYSYSATAYAGPNFRIVGDAGCFIDPFFSSGHHLAVAGALAAAVSINASIKGDCTEYEASRWHAKKVDEGYTLFLLVVMAALKQIRMQENPVLSDVDEDGFDRAFQFLRPEAVKKFTKEDVAQTIDFAVHALNNMAELDMDIPEHMINGDKEGENGVTNGNNGAAKTAGLASNMEKLTNDEEKVLNGLRILGKAAPGGTLADFEGTAIDGLMPRLEHGKLGLNKV
B2: MalA H253F: MalA halogenase variant, His253 substituted with phenylalanine (protein, UniProt L0E155 1-667, looked up, variant H253F)
Flavin-dependent halogenase …: MAPTPKYTFTERAAAGNLSDAEILNSNNPTGSELPDESDVVVGGAGIHGLIYALHASKYKPNNLKISVIEKNTRPGYKIGESTLPIFYTWCKLHGISAAYLLRLFGLKDGLCFYFLDRENQGQYTDFCSVGAPGLVLASLQIERPMSELLFTILAQRNGVNVYHGREVDFKSTVVQGGGQGNKIAVSRGKYDSTPKTIDSALFVDATGRFRQFCSKKAPRHRFDGWNCNAFWGYFTAPKDESKIPFDLYEGDFTNHLCFPEGWVWVIRLPSWEGSLIANLMDMVTYILECADAGVPGDELPSSEELARMFGLKFQWVTSIGFAVRNDVKYPEDLSAYGTREAEQKFNYFVQKYELLQQFMSNFELIENLYGPGTTWFIRKTLAYQSPVVSGPGWLAIGDACGFTNPLYSPGINVGMSTSTWAAQLSHRIVEIGKSAPADAAESSIRKLLVPYDDYCKSLVPALEQMNRFNYVCYRDTRLGPQVACLWQFFAGIERYLSDVNIETFAHYAIKWVWGAMVPEYQQVAQKCIEHIETVPLDERLPDAMVDELLAFSNRIKSAAVAADDFSLRWDAILRSFDRSLNFVEGKTSRDIYTRQCSGCGAWLQLRPDWKKCHSCGLLGTEPQTAVTFDPPLTAEEEALLYAAWNTAPKYDPSKELKLPTPTRPAA
B3: S129A/I493S: C9-selective MalA halogenase double mutant (protein, listed as Malbranchea aurantiaca)
chain: B2 Flavin-dependent halogenase … with S129A, F253H, I493S
modifications: MalA (S129A/I493S) protein
B4: MalA F489H: MalA halogenase variant, Phe489 substituted with histidine (protein, UniProt L0E155 1-667, looked up, variant F489H)
Flavin-dependent halogenase …: B2 Flavin-dependent halogenase … with F253H, F489H
B5: MalA K108A: MalA halogenase mutant of the catalytic lysine Lys108 (protein, UniProt L0E155 1-667, looked up, variant K108A)
Flavin-dependent halogenase …: B2 Flavin-dependent halogenase … with K108A, F253H
B6: MalA S129 Å/P85S: C8-selective MalA halogenase double mutant (protein, UniProt L0E155 1-667, looked up, variant S129A P85S)
Flavin-dependent halogenase …: B2 Flavin-dependent halogenase … with P85S, S129A, F253H
B7: MalA G131S: C9-selective MalA halogenase mutant (protein, UniProt L0E155 1-667, looked up, variant G131S)
Flavin-dependent halogenase …: B2 Flavin-dependent halogenase … with G131S, F253H
B8: D109A: MalA halogenase D109A mutant (protein, listed as Malbranchea aurantiaca)
chain: B2 Flavin-dependent halogenase … with D109A, F253H
modifications: Wild-type MalA protein
notes: MalA halogenase D109A mutant

How the values were obtained:
[1] = cited from earlier work
[2] = MalA biochemical activity assays, mutants versus wild-type MalA; settings: for site-selectivity of chlorination: chlorination of compound 2, C8 versus C9; for halogenase activity relative to wild-type MalA: chlorination of compound 2
Procedure: Biochemical activity assays were performed in a 100 μL volume with the following components: 18 μM MalA, 54 μM HpaC flavin reductase,^3 100 μM FAD, 50 mM NaCl, 250 μM substrate, 5 mM NADH, and brought to total volume with reaction buffer (same as storage bufferNaBr). The chlorination reactions proceeded for 20 minutes and the bromination reactions proceeded overnight. The reactions were extracted with ethyl acetate ([…], in triplicate) and dried down under nitrogen gas. The dried extract was resuspended in LC/MS grade methanol to a concentration of around 10 μM for LC/MS analysis. High resolution mass spectrometry was performed using electrospray ionization on an Agilent quadrupole time-of-flight spectrometer (Q-TOF 6500 series). Biochemical activity was monitored via the following HPLC method using acetonitrile and water: 65% acetonitrile for 5 minutes, gradient over 10 minutes to 95% acetonitrile, 95% acetonitrile for 5 minutes, gradient over 2 minutes to 65% acetonitrile, 65% acetonitrile for 11 minutes to re-equilibrate with a flow rate of 0.3 mL/minute, monitoring at 240 nm on a Phenomenex Lux cellulose-3, cellulose Tris (4-methylbenzoate) 250×4.6 mm column.

Row | Molecule | site-selectivity of chlorination [2] | halogenase activity relative to wild-type MalA [2] | further results
1 | B1 |  |  | catalytic efficiency ([1]; initial chlorination reaction): 2.93 min⁻¹ mM⁻¹; catalytic efficiency ([1]; second chlorination reaction): 0.11 min⁻¹ mM⁻¹
2 | B2 | selectivity for producing the C8-chlorinated compound 4 |  | site-selectivity profile of bromination ([2]; bromination of compound 2): same product profile as the wild-type MalA
3 | B3 | C9-selective |  | 
4 | B4 |  | significantly decreased | 
5 | B5 |  | inactive | 
6 | B6 | C8-selective |  | 
7 | B7 | C9-selective |  | 
8 | B8 |  | very low activity | 
